In patent publication US20210389324:

Columns and labels:
[1] = molecular target: T1, CFP-SFRP1-YFP
T1 chain: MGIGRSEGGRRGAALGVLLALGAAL

[2] = molecular target: T2, CFP-SFRP4-YFP
T2 chain: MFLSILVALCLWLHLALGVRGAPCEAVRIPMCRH

[3] = molecular target: T3, CFP-FOXG1-YFP
T3 chain: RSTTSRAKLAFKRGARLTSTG

[4] = molecular target: T4, CFP-SFRP2-YFP
T4 chain: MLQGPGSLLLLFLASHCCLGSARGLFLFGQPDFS

[5] = molecular target: T5, CFP-NT5M-YFP
T5 chain: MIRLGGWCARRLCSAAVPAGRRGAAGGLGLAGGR

[6] = molecular target: T6, CFP-SFVp12-YFP 19:6
T6 chain: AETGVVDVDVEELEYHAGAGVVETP

[7] = molecular target: T7, CFP-SFVp12-YFP 11:6
T7 chain: DVEELEYHAGAGVVETP

B1: Recombinant ZIKV ns2B/ns3 Protease (protein)
chain: MGSSHHHHHHSSGLVPRGSHMVDMYIERAGDITWEKDAEVTGNSPRLDVALDESGDFSLVEDDGPPMAGGGGSGGGGSGALWDVPAPKEVKKGETTDGVYRVMTRGLLGSTQVGVGVMQEGVFHTMWHVTKGSALRSGEGRLDPYWGDVKQDLVSYSGPWKLDAAWDGHSEVQLLAVPPGERARNIQTLPGIFKTKDGDIGAVALDYPAGTSGSPILDKSGRVIGLYGNGVVIKNGSYVSAITQGRR
B1 was tested, and the “cleavage of CFP-YFP substrate” value [1] was “ZIKV ns2B-ns3 protease”, the “cleavage of CFP-YFP substrate” value [2] was “Control, not cleaved by ZIKV ns2B-ns3 protease” and the “cleavage of CFP-YFP substrate” value [3] was “ZIKV ns2B-ns3 protease”. For the same protein, the “cleavage of CFP-YFP substrate” value [4] was “Control, not cleaved by ZIKV ns2B-ns3 protease” and the “cleavage of CFP-YFP substrate” value [5] was “ZIKV ns2B-ns3 protease”.

B2: Recombinant CHIKV nsP2 protease (protein)
chain: SNAFQNKANVCWAKSLVPILETAGIKLNDRQWSQIIQAFKEDKAYSPEVALNEICTRMYGVDLDSGLFSKPLVSVYYADNHWDNRPGGKMFGFNPEAASILERKYPFTKGKWNINKQICVTTRRIEDFNPTTNIIPVNRRLPHSLVAEHRPVKGERMEWLVNKINGHHVLLVSGYNLALPTKRVTWVAPLGVRGADYTYNLELGLPATLGRYDLVVINIHTPFRIHHYQQCVDHAMKLQMLGGDSLRLLKPGGSLLIRAYGYADRTSERVICVLGRKFRSSRALKPPCVTSNTEMFFLFSNFDNGRRNFTTHVMNNQLNAAFVG
In the case of B2, the “cleavage of CFP-YFP substrate” value [6] is reported as “CHIKV and VEEV nsP2 cysteine protease” and the “cleavage of CFP-YFP substrate” value [7] is reported as “CHIKV and VEEV nsP2 cysteine protease”.
